Experimental data: patent US20250320282A1 (MABYLON, published 2025)

T1: Ara h 6 (Arachis hypogaea allergen 6) (Arachis hypogaea, UniProt Q647G9 22-145)
T1 construct: Peanut allergen; also called Ara h 6.0101; nAra h 6
T1 sequence: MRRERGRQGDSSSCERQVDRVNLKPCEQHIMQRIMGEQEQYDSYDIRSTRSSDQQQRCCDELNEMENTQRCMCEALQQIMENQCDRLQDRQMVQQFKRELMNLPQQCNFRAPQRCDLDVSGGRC


Target: T1, Ara h 6 (Arachis hypogaea allergen 6)
Assay: ELISA, Fab titration on coated Ara h 6
Description: Next, the effect of the engineered variable regions on antigen binding was tested. Briefly, ELISA plates were coated with respective Ara h proteins (Ara h 2:0.05 ug/ml, Ara h 6:0.1 ug/ml, Ara h 3 loop (2nd): 0.1 ug/ml) overnight at 4° C. Afterwards, plates were blocked with BSA (2% in PBS) for 1 hour at room temperature. Fab fragment titration series starting from 4 ug/ml was prepared, added to the single ELISA plate wells and incubated for 2 h at room temperature. The read-out was performed by adding anti-hu-kappa/lambda-HRP (anti-kappa Invitrogen (A18853) and anti-lambda abcam (ab99811) for 1 h at room temperature. Tetramethylbenzidine substrate solution (TMB, Sigma-Aldrich Chemie GmbH, Buchs, Switzerland) was added, then after 5 minutes of hydrolysis time, the reaction was stopped by the addition of 1 M H₂SO₄ and the absorbances were read at 450 nm.

Binder | binding result
MY006-7G6 Fab Hg Lg (Fab, V domains shown, Germlined variant, IgG1-Fab format) VH: QVQLVESGGGVVQPGRSLRLSCAASGIAFNDYTMHWVRRAPGKGLEWVAAISYGGTNKYYADSVKGRFTISRDSSKNTLYLQMNSLRAEDTAVYYCARDSGYRSLLHWGQGTLVTVSS VL: EIVLTQSPLSLPVTPGEPASISCRSSQSLVHRNGYNYLDWYLQKPGQSPQLLIYMASKRASGVPDRFSGSGSGTDFTLKISRVEAEDVGVYYCMQALQTWTFGQGTKVEIK | binds
MY006-7G6 Fab Hg (Fab, V domains shown, Germlined variant, IgG1-Fab format; also called 7G6 Hg) VH: QVQLVESGGGVVQPGRSLRLSCAASGIAFNDYTMHWVRRAPGKGLEWVAAISYGGTNKYYADSVKGRFTISRDSSKNTLYLQMNSLRAEDTAVYYCARDSGYRSLLHWGQGTLVTVSS VL: EIVLTQSPLSLPVTPGEPASISCRSSQSLVHRNGYNYLDWYLQKPGQSPQLLIYMASKRASGVPDRFSGSGSGTEFTLKISRVEAEDVGIYYCMQALQTWTFGQGTKVEVN | binds
MY006-7G6 Fab Hf Lf (Fab, V domains shown, Germlined variant, IgG1-Fab format) VH: QVQLVESGGGVVQPGRSLRLSCAASGIAFNDYTMHWVRQAPGKGLEWVAAISYGGTNKYYADSVKGRFTISRDNSKNTLYLQMNSLRAEDTAVYYCARDSGYRSLLHWGQGTLVTVSS VL: DIVMTQSPLSLPVTPGEPASISCRSSQSLVHRNGYNYLDWYLQKPGQSPQLLIYMASKRASGVPDRFSGSGSGTDFTLKISRVEAEDVGVYYCMQALQTWTFGQGTKVEIK | binds
MY006-7G6 Fab Lg (Fab, V domains shown, Germlined variant, IgG1-Fab format; also called 7G6 Lg) VH: QVQLVESGGGVVQPGRSLRLSCAASGIAFNDYTMHWVRRSPDKGLEWVAAISYGGTNKYYADSVKGRFTISRDSSKNTLFLQMDSLRVEDTAVYYCARDSGYRSLLHWGQGTLVTVSS VL: EIVLTQSPLSLPVTPGEPASISCRSSQSLVHRNGYNYLDWYLQKPGQSPQLLIYMASKRASGVPDRFSGSGSGTDFTLKISRVEAEDVGVYYCMQALQTWTFGQGTKVEIK | binds
MY006-7G6 Fab Hf (Fab, V domains shown, Germlined variant, IgG1-Fab format; also called 7G6 Hf) VH: QVQLVESGGGVVQPGRSLRLSCAASGIAFNDYTMHWVRQAPGKGLEWVAAISYGGTNKYYADSVKGRFTISRDNSKNTLYLQMNSLRAEDTAVYYCARDSGYRSLLHWGQGTLVTVSS VL: EIVLTQSPLSLPVTPGEPASISCRSSQSLVHRNGYNYLDWYLQKPGQSPQLLIYMASKRASGVPDRFSGSGSGTEFTLKISRVEAEDVGIYYCMQALQTWTFGQGTKVEVN | binds
MY006-7G6 Fab Hf Lg (Fab, V domains shown, Germlined variant, IgG1-Fab format; also called 7G6: Hf/Lg) VH: QVQLVESGGGVVQPGRSLRLSCAASGIAFNDYTMHWVRQAPGKGLEWVAAISYGGTNKYYADSVKGRFTISRDNSKNTLYLQMNSLRAEDTAVYYCARDSGYRSLLHWGQGTLVTVSS VL: EIVLTQSPLSLPVTPGEPASISCRSSQSLVHRNGYNYLDWYLQKPGQSPQLLIYMASKRASGVPDRFSGSGSGTDFTLKISRVEAEDVGVYYCMQALQTWTFGQGTKVEIK | binds
MY006-7G6 Fab Hg Lf (Fab, V domains shown, Germlined variant, IgG1-Fab format) VH: QVQLVESGGGVVQPGRSLRLSCAASGIAFNDYTMHWVRRAPGKGLEWVAAISYGGTNKYYADSVKGRFTISRDSSKNTLYLQMNSLRAEDTAVYYCARDSGYRSLLHWGQGTLVTVSS VL: DIVMTQSPLSLPVTPGEPASISCRSSQSLVHRNGYNYLDWYLQKPGQSPQLLIYMASKRASGVPDRFSGSGSGTDFTLKISRVEAEDVGVYYCMQALQTWTFGQGTKVEIK | binds
MY006-7G6 Fab Lf (Fab, V domains shown, Germlined variant, IgG1-Fab format; also called 7G6 Lf) VH: QVQLVESGGGVVQPGRSLRLSCAASGIAFNDYTMHWVRRSPDKGLEWVAAISYGGTNKYYADSVKGRFTISRDSSKNTLFLQMDSLRVEDTAVYYCARDSGYRSLLHWGQGTLVTVSS VL: DIVMTQSPLSLPVTPGEPASISCRSSQSLVHRNGYNYLDWYLQKPGQSPQLLIYMASKRASGVPDRFSGSGSGTDFTLKISRVEAEDVGVYYCMQALQTWTFGQGTKVEIK | binds
MY006-15E3 Fab Hg Lg (Fab, V domains shown, Germlined variant, IgG1-Fab format) VH: EVQLVESGGGLVQPGGSLRLSCAASGFKFSTFYMTWIRQAPGKGLEWVANIKQDGSEKDYLDSVRGRFTISRDNAKSSLYLQMNSLRAEDTAVYYCTRNGLQDSYSGDFFDHWGQGTLVTVSS VL: QSVLTQPPSVSAAPGQKVTISCSGTGSNIGHNYVSWYQQLPGTAPKLLIFDNTKRPSGIPDRFSGSKSGSSATLGITGLQTGDEADYFCATWDADLSAVLFGGGTKLTVL | binds
MY006-15E3 Fab Hg Lf (Fab, V domains shown, Germlined variant, IgG1-Fab format) VH: EVQLVESGGGLVQPGGSLRLSCAASGFKFSTFYMTWIRQAPGKGLEWVANIKQDGSEKDYLDSVRGRFTISRDNAKSSLYLQMNSLRAEDTAVYYCTRNGLQDSYSGDFFDHWGQGTLVTVSS VL: QSVLTQPPSVSAAPGQKVTISCSGTGSNIGHNYVSWYQQLPGTAPKLLIYDNTKRPSGIPDRFSGSKSGTSATLGITGLQTGDEADYYCATWDADLSAVLFGGGTKLTVL | binds
MY006-15E3 Fab Hf Lg (Fab, V domains shown, Germlined variant, IgG1-Fab format; also called 15E3: Hf/Lg) VH: EVQLVESGGGLVQPGGSLRLSCAASGFKFSTFYMTWVRQAPGKGLEWVANIKQDGSEKDYLDSVRGRFTISRDNAKNSLYLQMNSLRAEDTAVYYCTRNGLQDSYSGDFFDHWGQGTLVTVSS VL: QSVLTQPPSVSAAPGQKVTISCSGTGSNIGHNYVSWYQQLPGTAPKLLIFDNTKRPSGIPDRFSGSKSGSSATLGITGLQTGDEADYFCATWDADLSAVLFGGGTKLTVL | binds
MY006-15E3 Fab Lg (Fab, V domains shown, Germlined variant, IgG1-Fab format; also called 15E3 Lg) VH: EVQLVESGGALVQPGGSLRLSCAASGFKFSTFYMTWIRQAPGKGLEWVANIKQDGSEKDYLDSVRGRFNISRDNAKSVLYLQMNTLSADDTGVYYCTRNGLQDSYSGDFFDHWGQGILVTVSS VL: QSVLTQPPSVSAAPGQKVTISCSGTGSNIGHNYVSWYQQLPGTAPKLLIFDNTKRPSGIPDRFSGSKSGSSATLGITGLQTGDEADYFCATWDADLSAVLFGGGTKLTVL | binds
MY006-15E3 Fab Hg (Fab, V domains shown, Germlined variant, IgG1-Fab format; also called 15E3 Hg) VH: EVQLVESGGGLVQPGGSLRLSCAASGFKFSTFYMTWIRQAPGKGLEWVANIKQDGSEKDYLDSVRGRFTISRDNAKSSLYLQMNSLRAEDTAVYYCTRNGLQDSYSGDFFDHWGQGTLVTVSS VL: QSVLTQPPSISAAPGQKVTISCSGTGSNIGHNYVSWYQQLPRTAPRLLIFDNTKRPSGIPDRFSGSKSGSSATLGITGLQTGDEAHYFCATWDADLSAVLFGGGTKLTVL | binds
MY006-15E3 Fab Hf Lf (Fab, V domains shown, Germlined variant, IgG1-Fab format) VH: EVQLVESGGGLVQPGGSLRLSCAASGFKFSTFYMTWVRQAPGKGLEWVANIKQDGSEKDYLDSVRGRFTISRDNAKNSLYLQMNSLRAEDTAVYYCTRNGLQDSYSGDFFDHWGQGTLVTVSS VL: QSVLTQPPSVSAAPGQKVTISCSGTGSNIGHNYVSWYQQLPGTAPKLLIYDNTKRPSGIPDRFSGSKSGTSATLGITGLQTGDEADYYCATWDADLSAVLFGGGTKLTVL | binds
MY006-15E3 Fab Lf (Fab, V domains shown, Germlined variant, IgG1-Fab format; also called 15E3 Lf) VH: EVQLVESGGALVQPGGSLRLSCAASGFKFSTFYMTWIRQAPGKGLEWVANIKQDGSEKDYLDSVRGRFNISRDNAKSVLYLQMNTLSADDTGVYYCTRNGLQDSYSGDFFDHWGQGILVTVSS VL: QSVLTQPPSVSAAPGQKVTISCSGTGSNIGHNYVSWYQQLPGTAPKLLIYDNTKRPSGIPDRFSGSKSGTSATLGITGLQTGDEADYYCATWDADLSAVLFGGGTKLTVL | binds
MY006-15E3 Fab Hf (Fab, V domains shown, Germlined variant, IgG1-Fab format; also called 15E3 Hf) VH: EVQLVESGGGLVQPGGSLRLSCAASGFKFSTFYMTWVRQAPGKGLEWVANIKQDGSEKDYLDSVRGRFTISRDNAKNSLYLQMNSLRAEDTAVYYCTRNGLQDSYSGDFFDHWGQGTLVTVSS VL: QSVLTQPPSISAAPGQKVTISCSGTGSNIGHNYVSWYQQLPRTAPRLLIFDNTKRPSGIPDRFSGSKSGSSATLGITGLQTGDEAHYFCATWDADLSAVLFGGGTKLTVL | binds
MY006-2F8 Fab Hg (Fab, V domains shown, Germlined variant, IgG1-Fab format; also called 2F8 Hg) VH: EVQLVESGGGLVQPGGSLRLSCAASGFIFSDYNMNWVRQAPGKGLEWVSSITRSSRTIYYADSVKGRFTISRDNAKNSLYLQMNSLRDEDTAVYYCAREDFDVSTGPYYMDVWGKGTTVTVSS VL: EIVLTQSPGTLSLSPGERATLSCRASQSVSNMFLVWYQQKPGQAPRLLMYGASTRATDIPDRFSGSGSGTDFTLTISRLEPEDFAVYYCQQNGNSPYTFGQGTKLEIK | binds
MY006-2F8 Fab Lg (Fab, V domains shown, Germlined variant, IgG1-Fab format; also called 2F8 Lg) VH: EVQLVESGGGLVKPGGSLRLSCAASGFIFSDYNMNWVRQAPGKGLEWVSSITRSSRTIYYADSVKGRFTISRDNAKNSLHLQMNSLRDADTAVYYCAREDFDVSTGPYYMDVWGNGTTVIVSS VL: EIVLTQSPGTLSLSPGERATLSCRASQSVSNMFLVWYQQKPGQAPRLLMYGASTRATGIPDRFSGSGSGTDFTLTISRLEPEDFAVYYCQQNGNSPYTFGQGTKLEIK | binds
MY006-2F8 Fab Hg Lg (Fab, V domains shown, Germlined variant, IgG1-Fab format) VH: EVQLVESGGGLVQPGGSLRLSCAASGFIFSDYNMNWVRQAPGKGLEWVSSITRSSRTIYYADSVKGRFTISRDNAKNSLYLQMNSLRDEDTAVYYCAREDFDVSTGPYYMDVWGKGTTVTVSS VL: EIVLTQSPGTLSLSPGERATLSCRASQSVSNMFLVWYQQKPGQAPRLLMYGASTRATGIPDRFSGSGSGTDFTLTISRLEPEDFAVYYCQQNGNSPYTFGQGTKLEIK | binds
MY006-2F8 Fab Lf (Fab, V domains shown, Germlined variant, IgG1-Fab format; also called 2F8 Lf) VH: EVQLVESGGGLVKPGGSLRLSCAASGFIFSDYNMNWVRQAPGKGLEWVSSITRSSRTIYYADSVKGRFTISRDNAKNSLHLQMNSLRDADTAVYYCAREDFDVSTGPYYMDVWGNGTTVIVSS VL: EIVLTQSPGTLSLSPGERATLSCRASQSVSNMFLVWYQQKPGQAPRLLIYGASTRATGIPDRFSGSGSGTDFTLTISRLEPEDFAVYYCQQNGNSPYTFGQGTKLEIK | binds
